Reference: the supplement of paper PMC9112550, “Optimization of the antimicrobial peptide Bac7 by deep mutational scanning” (BMC Biology, 2022)

Tested on: Escherichia coli TOP10
Assay: shrunken log2 fold change of peptide-encoding DNA abundance (4.5 h post-induction vs induction); higher = less antimicrobial activity (less host growth inhibition)
Conditions: time post-induction: 4.5 h; library: site-saturation at positions 5, 18, 19, 20
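Note: peptides expressed intracellularly from a pBAD plasmid library in pooled LB shake-flask culture, induced with 0.3% L-arabinose, DNA abundance read by NGS, three biological replicates, DESeq2 with apeglm shrinkage.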

Compared with RRIRTRPPRLPRPRPRPELWPRP, RRIRARPPRLPRPRPRPRPCPRP is higher in “shrunken log2 fold change” value: -0.142 for the first, 0.426 for the second.

First: RRIRPRPPRLPRPRPRPMFQPRP
Second: RRIRSRPPRLPRPRPRPLQKPRP
The “shrunken log2 fold change” value of the first is lower: -0.241 for the first, 0.0179 for the second.

Compared with RRIRWRPPRLPRPRPRPYADPRP, RRIRIRPPRLPRPRPRPHSSPRP is lower in “shrunken log2 fold change” value: -0.0623 for the first, -0.448 for the second.

Compared with RRIRVRPPRLPRPRPRPIVPPRP, RRIRWRPPRLPRPRPRPCGNPRP is higher in “shrunken log2 fold change” value: -0.349 for the first, 0.0696 for the second.

Going from RRIRTRPPRLPRPRPRPTRRPRP to RRIRKRPPRLPRPRPRPHFCPRP, the “shrunken log2 fold change” value falls from 0.71 to -0.167.

RRIRWRPPRLPRPRPRPYQKPRP and RRIRWRPPRLPRPRPRPLEVPRP are within 0.2 log units of each other in “shrunken log2 fold change” value: -0.0398 for the first, -0.0802 for the second.

RRIRGRPPRLPRPRPRPHVMPRP and RRIRPRPPRLPRPRPRPRPIPRP are within 0.2 log units of each other in “shrunken log2 fold change” value: 0.0731 for the first, 0.27 for the second.

Going from RRIRHRPPRLPRPRPRPSEVPRP to RRIRERPPRLPRPRPRPSMSPRP, the “shrunken log2 fold change” value rises from -0.277 to -0.0748.

Compared with RRIRLRPPRLPRPRPRPLSAPRP, RRIRGRPPRLPRPRPRPIFQPRP is higher in “shrunken log2 fold change” value: 0.0846 for the first, 0.407 for the second.

First: RRIRKRPPRLPRPRPRPTSMPRP
Second: RRIRIRPPRLPRPRPRPEEQPRP
The “shrunken log2 fold change” value of the first is higher: 0.508 for the first, 0.0175 for the second.

RRIRYRPPRLPRPRPRPRNMPRP and RRIRYRPPRLPRPRPRPKTMPRP are within 0.2 log units of each other in “shrunken log2 fold change” value: -0.56 for the first, -0.614 for the second.

Compared with RRIRRRPPRLPRPRPRPMVQPRP, RRIRERPPRLPRPRPRPENYPRP is higher in “shrunken log2 fold change” value: -0.00615 for the first, 2 for the second.

Compared with RRIRCRPPRLPRPRPRPQIWPRP, RRIRTRPPRLPRPRPRPVTDPRP is higher in “shrunken log2 fold change” value: -0.226 for the first, 0.0266 for the second.

First: RRIRARPPRLPRPRPRPMVNPRP
Second: RRIRKRPPRLPRPRPRPNMGPRP
The “shrunken log2 fold change” value of the first is higher: 0.309 for the first, -0.215 for the second.

Compared with RRIRFRPPRLPRPRPRPPLQPRP, RRIRGRPPRLPRPRPRPHFPPRP is lower in “shrunken log2 fold change” value: 0.353 for the first, 0.0246 for the second.

RRIRYRPPRLPRPRPRPEYFPRP and RRIRIRPPRLPRPRPRPDHMPRP are within 0.2 log units of each other in “shrunken log2 fold change” value: -0.744 for the first, -0.87 for the second.

Going from RRIRKRPPRLPRPRPRPEIVPRP to RRIRPRPPRLPRPRPRPVLGPRP, the “shrunken log2 fold change” value falls from 1.08 to 0.122.

RRIRMRPPRLPRPRPRPFPHPRP and RRIRYRPPRLPRPRPRPHRLPRP are within 0.2 log units of each other in “shrunken log2 fold change” value: -0.0309 for the first, -0.0157 for the second.

RRIRTRPPRLPRPRPRPRMTPRP and RRIRTRPPRLPRPRPRPSPAPRP are within 0.2 log units of each other in “shrunken log2 fold change” value: 0.146 for the first, 0.133 for the second.

RRIRHRPPRLPRPRPRPHANPRP and RRIRYRPPRLPRPRPRPIIMPRP are within 0.2 log units of each other in “shrunken log2 fold change” value: -0.124 for the first, -0.0214 for the second.

RRIRVRPPRLPRPRPRPIPGPRP and RRIRYRPPRLPRPRPRPIVRPRP are within 0.2 log units of each other in “shrunken log2 fold change” value: -0.0572 for the first, -0.0319 for the second.

Going from RRIRCRPPRLPRPRPRPVVSPRP to RRIRWRPPRLPRPRPRPCVAPRP, the “shrunken log2 fold change” value rises from -0.229 to 0.321.

RRIRCRPPRLPRPRPRPWTQPRP and RRIRQRPPRLPRPRPRPYWYPRP are within 0.2 log units of each other in “shrunken log2 fold change” value: -0.12 for the first, -0.0759 for the second.

RRIRYRPPRLPRPRPRPRYQPRP and RRIRLRPPRLPRPRPRPRFMPRP are within 0.2 log units of each other in “shrunken log2 fold change” value: -0.0935 for the first, -0.244 for the second.

RRIRERPPRLPRPRPRPASIPRP and RRIRSRPPRLPRPRPRPKLYPRP are within 0.2 log units of each other in “shrunken log2 fold change” value: -0.327 for the first, -0.199 for the second.

Going from RRIRMRPPRLPRPRPRPSKFPRP to RRIRTRPPRLPRPRPRPDFIPRP, the “shrunken log2 fold change” value falls from -0.0303 to -0.547.

RRIRDRPPRLPRPRPRPWIAPRP and RRIRSRPPRLPRPRPRPYHQPRP are within 0.2 log units of each other in “shrunken log2 fold change” value: -0.117 for the first, -0.203 for the second.

Compared with RRIRLRPPRLPRPRPRPHWWPRP, RRIRYRPPRLPRPRPRPIKIPRP is lower in “shrunken log2 fold change” value: 0.148 for the first, -0.105 for the second.

RRIRHRPPRLPRPRPRPESMPRP and RRIRLRPPRLPRPRPRPQQCPRP are within 0.2 log units of each other in “shrunken log2 fold change” value: 0.0353 for the first, 0.146 for the second.

RRIRWRPPRLPRPRPRPHAKPRP and RRIRSRPPRLPRPRPRPKGKPRP are within 0.2 log units of each other in “shrunken log2 fold change” value: 0.202 for the first, 0.0401 for the second.

Going from RRIRDRPPRLPRPRPRPNTYPRP to RRIRCRPPRLPRPRPRPIWLPRP, the “shrunken log2 fold change” value rises from -0.127 to 0.122.

RRIRIRPPRLPRPRPRPAQVPRP and RRIRLRPPRLPRPRPRPCWSPRP are within 0.2 log units of each other in “shrunken log2 fold change” value: -0.00946 for the first, -0.172 for the second.

First: RRIRKRPPRLPRPRPRPMYQPRP
Second: RRIRVRPPRLPRPRPRPPAWPRP
The “shrunken log2 fold change” value of the first is lower: 0.056 for the first, 0.498 for the second.

Going from RRIRTRPPRLPRPRPRPLQGPRP to RRIRNRPPRLPRPRPRPFLCPRP, the “shrunken log2 fold change” value falls from 0.12 to -0.966.

Going from RRIRKRPPRLPRPRPRPIFLPRP to RRIRERPPRLPRPRPRPITMPRP, the “shrunken log2 fold change” value falls from 0.0688 to -0.408.

First: RRIRVRPPRLPRPRPRPRMCPRP
Second: RRIRWRPPRLPRPRPRPKWEPRP
The “shrunken log2 fold change” value of the first is lower: -0.35 for the first, 0.0855 for the second.

Compared with RRIRQRPPRLPRPRPRPRSFPRP, RRIRPRPPRLPRPRPRPLCLPRP is lower in “shrunken log2 fold change” value: -0.0281 for the first, -0.294 for the second.

Compared with RRIRARPPRLPRPRPRPNMEPRP, RRIRERPPRLPRPRPRPMFIPRP is lower in “shrunken log2 fold change” value: -0.0484 for the first, -0.256 for the second.

Compared with RRIRARPPRLPRPRPRPTGNPRP, RRIRCRPPRLPRPRPRPFRIPRP is lower in “shrunken log2 fold change” value: 0.186 for the first, -0.128 for the second.

First: RRIRNRPPRLPRPRPRPGWGPRP
Second: RRIRLRPPRLPRPRPRPHGLPRP
The “shrunken log2 fold change” value of the first is higher: 0.492 for the first, 0.123 for the second.

Compared with RRIRDRPPRLPRPRPRPDWCPRP, RRIRIRPPRLPRPRPRPWRFPRP is lower in “shrunken log2 fold change” value: 0.163 for the first, -0.105 for the second.

RRIRCRPPRLPRPRPRPTKCPRP and RRIRVRPPRLPRPRPRPNKAPRP are within 0.2 log units of each other in “shrunken log2 fold change” value: -0.0551 for the first, 0.13 for the second.

RRIRQRPPRLPRPRPRPWPVPRP and RRIRFRPPRLPRPRPRPAHEPRP are within 0.2 log units of each other in “shrunken log2 fold change” value: 0.103 for the first, 0.0902 for the second.

RRIRVRPPRLPRPRPRPIVDPRP and RRIRNRPPRLPRPRPRPVHYPRP are within 0.2 log units of each other in “shrunken log2 fold change” value: -0.142 for the first, -0.124 for the second.

RRIRIRPPRLPRPRPRPQYPPRP and RRIRDRPPRLPRPRPRPPQIPRP are within 0.2 log units of each other in “shrunken log2 fold change” value: -0.32 for the first, -0.179 for the second.

Compared with RRIRIRPPRLPRPRPRPPQQPRP, RRIRVRPPRLPRPRPRPIHHPRP is lower in “shrunken log2 fold change” value: 0.197 for the first, -0.723 for the second.

Going from RRIRARPPRLPRPRPRPRFCPRP to RRIRERPPRLPRPRPRPADPPRP, the “shrunken log2 fold change” value falls from 0.527 to -0.35.

Going from RRIRLRPPRLPRPRPRPFWDPRP to RRIRPRPPRLPRPRPRPRQEPRP, the “shrunken log2 fold change” value rises from 0.184 to 3.83.

RRIRSRPPRLPRPRPRPCETPRP and RRIRWRPPRLPRPRPRPVDIPRP are within 0.2 log units of each other in “shrunken log2 fold change” value: 0.18 for the first, 0.101 for the second.

Compared with RRIRVRPPRLPRPRPRPQYLPRP, RRIRGRPPRLPRPRPRPPWKPRP is higher in “shrunken log2 fold change” value: -0.12 for the first, 0.435 for the second.

First: RRIRARPPRLPRPRPRPDFKPRP
Second: RRIRCRPPRLPRPRPRPDFCPRP
The “shrunken log2 fold change” value of the first is higher: 0.00723 for the first, -0.228 for the second.

Compared with RRIRRRPPRLPRPRPRPMSGPRP, RRIRNRPPRLPRPRPRPLMFPRP is lower in “shrunken log2 fold change” value: 0.0609 for the first, -0.947 for the second.

First: RRIRERPPRLPRPRPRPHIKPRP
Second: RRIRDRPPRLPRPRPRPMEVPRP
The “shrunken log2 fold change” value of the first is lower: -0.932 for the first, 0.142 for the second.

RRIRNRPPRLPRPRPRPVELPRP and RRIRWRPPRLPRPRPRPCYKPRP are within 0.2 log units of each other in “shrunken log2 fold change” value: -0.0081 for the first, -0.00556 for the second.

Going from RRIRWRPPRLPRPRPRPCVWPRP to RRIRGRPPRLPRPRPRPGQFPRP, the “shrunken log2 fold change” value falls from 0.738 to -0.00612.

First: RRIRLRPPRLPRPRPRPNCLPRP
Second: RRIRCRPPRLPRPRPRPRIDPRP
The “shrunken log2 fold change” value of the first is lower: -0.61 for the first, 0.117 for the second.

Compared with RRIRTRPPRLPRPRPRPKSTPRP, RRIRIRPPRLPRPRPRPSSIPRP is lower in “shrunken log2 fold change” value: 0.0437 for the first, -0.169 for the second.

Going from RRIRTRPPRLPRPRPRPYDGPRP to RRIRMRPPRLPRPRPRPRTEPRP, the “shrunken log2 fold change” value rises from -0.0303 to 0.718.

Compared with RRIRDRPPRLPRPRPRPFSMPRP, RRIRHRPPRLPRPRPRPVLRPRP is higher in “shrunken log2 fold change” value: -0.506 for the first, -0.0204 for the second.

Going from RRIRNRPPRLPRPRPRPINYPRP to RRIRFRPPRLPRPRPRPRDLPRP, the “shrunken log2 fold change” value rises from -0.262 to -0.00831.

RRIRSRPPRLPRPRPRPNVTPRP and RRIRSRPPRLPRPRPRPCIEPRP are within 0.2 log units of each other in “shrunken log2 fold change” value: -0.0212 for the first, -0.21 for the second.

RRIRWRPPRLPRPRPRPIGLPRP and RRIRIRPPRLPRPRPRPVQLPRP are within 0.2 log units of each other in “shrunken log2 fold change” value: 0.0952 for the first, -0.0585 for the second.

With RRIRARPPRLPRPRPRPANDPRP the “shrunken log2 fold change” value was 0.0448.
